Source: patent US8246957

Columns and labels:
[1] = target: gp120 of HIV-1 primary isolate BR004 (clade C) (HIV-1 strain BR004); assay: cell-based or functional assay
[2] = target: gp120 of HIV-1 primary isolate SF-162 (clade B) (HIV-1 strain SF-162); assay: cell-based or functional assay

Substance: IgG clone b12 (antibody)
- IC50, HIV-1 neutralization (p24, PBMC hosts) (µg Ab fragment/ml) [1]: 9
- IC90, HIV-1 neutralization (p24, PBMC hosts) (µg Ab fragment/ml) [1]: 333
- IC50, HIV-1 neutralization (p24, PBMC hosts) (µg Ab fragment/ml) [2]: 1.1
- IC90, HIV-1 neutralization (p24, PBMC hosts) (µg Ab fragment/ml) [2]: 14.1
